Assay results published in article PMC4703963, “Oxidative Dimerization of PHD2 is Responsible for its Inactivation and Contributes to Metabolic Reprogramming via HIF-1α Activation” (Scientific Reports, 2016).

B1: Flag-tagged PHD3 (natural protein, human, UniProt Q9H6Z9 1-239, looked up)
chain: MPLGHIMRLDLEKIALEYIVPCLHEVGFCYLDNFLGEVVGDCVLERVKQLHCTGALRDGQLAGPRAGVSKRHLRGDQITWIGGNEEGCEAISFLLSLIDRLVLYCGSRLGKYYVKERSKAMVACYPGNGTGYVRHVDNPNGDGRCITCIYYLNKNWDAKLHGGILRIFPEGKSFIADVEPIFDRLLFFWSDRRNPHEVQPSYATRYAMTVWYFDAEERAEAKKKFRNLTRKTESALTED
notes: PHD3, human; Flag-tagged lentiviral vector from William Kaelin; also called Flag-PHD3; source: U2OS stably expressing (lentiviral vector), in lysate
B2: PHD3, endogenous (natural protein, human (endogenous in U2OS), UniProt Q9H6Z9 1-239, looked up)
chain: B1 chain
notes: PHD3, endogenous in U2OS cells; source: endogenous, U2OS lysate

Biological target: the molecule itself
Assay: non-reducing SDS-PAGE with immunoblot; total cell lysates (1% IGEPAL, 150 mM NaCl, 50 mM Tris-HCl pH 7.9, no reducing agent) in sample buffer without β-ME; cells treated with H2O2 (50-200 uM), T-hydro (1-3 uM), diamide (0.1-1 mM), 10% FBS or expressing H-ras V12

Row | Protein | stoichiometry N
1 | B1 | 2
2 | B2 | 2
